Data published in patent publication US20250026791A1, “CYCLIC PEPTIDE CYCLIZED IN AROMATIC NUCLEOPHILIC SUBSTITUTION REACTION, AND PEPTIDE LIBRARY, PRODUCTION METHOD, AND SCREENING METHOD FOR SAME” (UNIVERSITY OF YAMANASHI, priority 2021, published 2025).
*1 amine or outer side, *2 acyl side, *3 side chain or, on linkers, in order; H or OH if unused. Where no end group is shown, it is not given here. The star is where a group is joined. Lys(Biotin) = O=C(CCCC[C@@H]1SC[C@@H]2NC(=O)N[C@@H]21)NCCCC[C@H](N[*:1])C(=O)[*:2]; F5Ph = Fc1c(F)c(F)c(*)c(F)c1F; FNO2Ph = not defined here; Ahx = NCCCCCC(=O)O

Legend:
Format in all cases: binding
PCSK9 [1] = target: T1, PCSK9 (Homo sapiens, UniProt Q8NBP7); experiment: HRP-labeled peptide pulled down with PCSK9-immobilized beads, chemiluminescence detection; settings: without presentation by cDNA-mRNA dimer, FIGS. 16, 17, 25
T1 sequence (Q8NBP7 153-692): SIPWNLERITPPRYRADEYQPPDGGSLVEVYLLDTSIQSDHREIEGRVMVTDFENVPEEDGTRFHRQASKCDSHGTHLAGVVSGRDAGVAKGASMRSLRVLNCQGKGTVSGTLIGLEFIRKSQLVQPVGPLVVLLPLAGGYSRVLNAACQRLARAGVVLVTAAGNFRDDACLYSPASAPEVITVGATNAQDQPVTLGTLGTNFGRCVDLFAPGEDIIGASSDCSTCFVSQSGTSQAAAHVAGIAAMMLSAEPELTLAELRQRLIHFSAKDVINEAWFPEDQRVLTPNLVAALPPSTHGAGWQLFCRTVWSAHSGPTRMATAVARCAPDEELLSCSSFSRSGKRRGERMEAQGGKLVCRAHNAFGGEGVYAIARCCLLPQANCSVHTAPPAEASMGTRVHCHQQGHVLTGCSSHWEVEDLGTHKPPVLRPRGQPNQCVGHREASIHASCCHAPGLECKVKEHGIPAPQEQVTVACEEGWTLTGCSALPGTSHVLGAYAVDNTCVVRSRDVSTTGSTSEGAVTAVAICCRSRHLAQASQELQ
Method: Peptide 1-1 and Peptide 2-1 were labeled via horseradish peroxidase (HRP)-labeled streptavidin. Each peptide of HRP-labeled Peptide 1-1 and Peptide 2-1 was pulled down with PCSK9-immobilized beads. HRP substrate was added to PCSK9-immobilized beads and chemiluminescence was detected using LuminoGraph III (ATTO).
The PCSK9 binding activity of HRP-labeled Peptide 1-1 (monomer) and the dimer of Peptide 1-1 (Peptide A) were analyzed by PCSK9 pull-down and chemiluminescence detection.
Peptide C was labeled via HRP-labeled streptavidin. Based on the same method as in Experimental Example 7, the PCSK9 binding activity of HRP-labeled Peptide C was analyzed by PCSK9 pulldown and chemiluminescence detection.

His-tagged PCSK9 = His-tagged PCSK9 (Homo sapiens, UniProt Q8NBP7); experiment: His-tagged PCSK9 (HRP-conjugated anti-His-tag antibody) pulled down with peptide-immobilized streptavidin beads, chemiluminescence detection; settings: peptide on streptavidin beads pulls down His-tagged PCSK9; FIGS. 18 and 19
Chain of His-tagged PCSK9 (Q8NBP7 153-692): as above
Method: Each of Peptide 1-1 and peptide 2-1 was conjugated to streptavidin beads. His-tagged PCSK9 was labeled via HRP-conjugated anti-His-tagged antibody. The complex of PCSK9 and HRP was pulled down with Peptide 1-1 or Peptide 2-1 immobilized beads. HRP substrates were added to the peptide-immobilized beads and chemiluminescence was detected using LuminoGraph III (ATTO).

PCSK9 [2] = target: T1, PCSK9; experiment: Collection rate of cDNA/mRNA presenting cyclized peptide against PCSK9-immobilized beads; settings: for collection rate against PCSK9, Peptide 2 (WT) versus Peptide 3 (C17S): FIG. 13, C17 replaced with serine
Method: Site-specific biotinylated human PCSK9 was immobilized on streptavidin-modified magnetic beads. Fc fusion protein of human PCSK9 was immobilized on protein A-modified magnetic beads. Immobilization of PCSK9 was confirmed by sodium dodecyl sulfate polyacrylamide gel electrophoresis and staining with Coomassie brilliant blue.
Each of the mRNA-presenting FNO2Ph and F5Ph cyclized peptide libraries was incubated with PCSK9-immobilized streptavidin-modified beads as positive selection. After removal of the supernatant, the beads were washed with HBS-T. cDNA encoding the peptide binding to the PCSK9-immobilized beads was PCR amplified with Taq DNA polymerase. The amplified PCR product was used for the next round of SELEX.
After the positive selection, cDNA encoding peptides that bind to PCSK9 immobilized beads was amplified by PCR and quantified by qPCR using SYBR green.
Each collection rate of the cDNA/mRNA presenting FNO2Ph cyclized peptide with the amino acid sequence of SEQ ID: 4 (hereafter referred to as Peptide 1) and the cDNA/mRNA presenting F5Ph cyclized peptide with the amino acid sequence of SEQ ID: 14 (hereafter referred to as Peptide 2) against PCSK9 was determined. […] beads were used as negative controls.
Peptide 3 (SEQ ID: 27) was prepared by replacing C17 in Peptide 2 (F5Ph is the first amino acid) with serine. Each collection rate of Peptide 2 (WT) and Peptide 3 (C17S) against PCSK9 was measured (FIG. 13).

human IL-5 = experiment: Collection rate of cDNA/mRNA presenting cyclized peptide against IL-5; settings: compared with IL-5 non-immobilized beads (FIGS. 29 and 30)
Chain of human IL-5 (P05113 20-134): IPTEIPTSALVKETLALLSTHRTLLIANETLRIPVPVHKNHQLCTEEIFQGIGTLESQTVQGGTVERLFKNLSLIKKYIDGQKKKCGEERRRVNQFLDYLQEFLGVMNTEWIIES
Method: We checked whether the screening in Experimental Example 2 is applicable to compounds other than human PCSK9. Screening was performed for peptides that bind to human IL-5 as compounds other than human PCSK9.
Each collection rate of cDNA/mRNA presenting FNO2Ph cyclized peptide with the amino acid sequence of SEQ ID: 66 (hereafter referred to as Peptide 4) and cDNA/mRNA presenting F5Ph cyclized peptide with the amino acid sequence of SEQ ID: 69 (hereafter referred to as Peptide 5) against IL-5 was determined. IL-5 non-immobilized beads were used as a negative control. […] From the above, it was possible to screen for human IL-5 which is a compound other than human PCSK9.

Row | PCSK9 binding activity (PCSK9 [1]) | Substance | collection rate against PCSK9, Peptide 2 (WT) versus Peptide 3 (C17S) (PCSK9 [2]) | collection rate against IL-5 (human IL-5) | also measured
1 | have binding activity to PCSK9 | Peptide 2-1: chemically synthesized FNO2Ph cyclized peptide (as printed), SEQ ID: 14, C-terminal spacer of three Ahx and biotinylated lysine (RGHCWLYVYFPVRSLC-{Ahx-Ahx-Ahx-K(biotin)-NH2}; thioether (positions not given here); not fully specified (N-terminus, bridges); also: FNO2Ph cyclization, places not given here) |  |  | PCSK9 binding activity (His-tagged PCSK9): have binding activity to PCSK9
2 |  | Peptide 2: F5Ph cyclized peptide with amino acid sequence of SEQ ID: 14 (RGHCWLYVYFPVRSLC), cDNA/mRNA presented (F5Ph-RGHCWLYVYFPVRSLC; thioether (positions not given here); not fully specified (bridges)) | C17 in Peptide 2 was found to be critical for Peptide 2 binding to PCSK9 |  | collection rate against PCSK9 (PCSK9 [2]; cDNA/mRNA presenting peptide, compared with negative control beads (FIGS. 10 and 11)): higher than that of the negative control
3 |  | Peptide 3: SEQ ID: 27; C17 in Peptide 2 (F5Ph is the first amino acid) replaced with serine (F5Ph-RGHCWLYVYFPVRSLS; thioether (positions not given here); not fully specified (bridges)) | C17 in Peptide 2 was found to be critical for Peptide 2 binding to PCSK9 |  | 
4 |  | Peptide 4: FNO2Ph cyclized peptide with amino acid sequence of SEQ ID: 66 (LLLMWCAVLVVLRWRRR), cDNA/mRNA presented (bridge (positions not given here) via FNO2Ph; reading uncertain; also: FNO2Ph cyclization, places not given here) |  | higher than those of the negative control | 
5 |  | Peptide 5: F5Ph cyclized peptide with amino acid sequence of SEQ ID: 69 (HSPFTFQHC), cDNA/mRNA presented (bridge (positions not given here) via F5Ph; also: F5Ph cyclization, places not given here) |  | higher than those of the negative control | 
6 | have binding activity for PCSK9 | Peptide C: FNO2Ph cyclized peptide, SEQ ID: 35: two methionines of SEQ ID: 28 replaced with isoleucine; three Ahx spacer, biotinylated lysine (RWRFYSGIRNREIDC-{Ahx-Ahx-Ahx-Lys(Biotin)-NH2}; not fully specified (N-terminus, bridges); also: FNO2Ph cyclization, places not given here) |  |  | 
